Measurements from the DeepSol protein solubility set.

assay: soluble on expression in E. coli; label from the status in PepcDB or PDB records

Soluble on expression in E. coli, soluble:
MTTATAGLAVELKQSTAQAHEKAEHSTFMSDLLKGRLGVAEFTRLQEQAWLFYTALEQAVDAVRASGFAESLLDPALNRAEVLARDLDKLNGSSEWRSRITASPAVIDYVNRLEEIRDNVDGPALVAHHYVRYLGNLSGGQVIARMMQRHYGVDPEALGFYHFEGIAKLKVYKDEYREKLNNLELSDEQREHLLKEATDAFVFNHQVFADLGKGL
AENDKPQYLSDWWHQSVNVVGSYHTRFGPQIRNDTYLEYEAFAKKDWFDFYGYADAPVFFGGNSDAKGIWNHGSPLFMEIEPRFSIDKLTNTDLSFGPFKEWYFANNYIYDMGRNKDGRQSTWYMGLGTDIDTGLPMSLSMNVYAKYQWQNYGAANENEWDGYRFKIKYFVPITDLWGGQLSYIGFTNFDWGSDLGDDSGNAINGIKTRTNNSIASSHILALNYDHWHYSVVARYWHDGGQWNDDAELNFGNGNFNVRSTGWGGYLVVGYNFHHHHHH
MSLKYDVCIIGAGPAGYAAAMRALDLNKSVILIEKDKIGGAGLYNGAISSKTFWELAKDIQTARKRLAQYSPDQHFSVTYQQVLRQVREGIANRRFHLEGQIESLAKQQTSRFRYIKGSAKLVSHNTVEVSTGTEEEIIEAENVVIATGSKPRKLPNIPIDEKIIVTSDGVENFENFPKSLVILGAGVIGCEWATIFSNFGYTSVNIIDKAERILPFEDDDVTDVVEANMKKQGITVHKKSNLLSMRIVDGEVEYILEYTDGRKEMHRVEKVLVSVGRIPNTQNLGLERVGVNILANGQIENTDGQTNIPNIYVAGDISSDVALVNVAELEGRHVIEKMFGLSDSVITYNNVSTIMFVQPEVAGVGMNEKKALQNKMSYKVVKIRYDMIPRAIAMRNNDGFFKILVTNDADMKIIGMRAVGVHASSAIQAVALLISMDKGVEELADMIHPHPSIIEGIQECIRMLLGKSVLKPEFFKGMLSCKSCDENGCVNDIIYLREGHHHHHH
MGGSGVEGLSGKRCWLAVRNASLCQFLETSLQRSGIVVTTYEGQEPTPEDVLITDEVVSKKWQGRAVVTFCRRHIGIPLEKAPGEWVHSVAAPHELPALLARIYLIEMESDDPANALPSTDKAVSDNDDMMILVVDDHPINRRLLADQLGSLGYQCKTANDGVDALNVLSKNHIDIVLSDVNMPNMDGYRLTQRIRQLGLTLPVIGVTANALAEEKQRCLESGMDSCLSKPVTLDVIKQTLTLYAERVRKSRDS
MSLTVIITGASSGIGAGLAKSFAADGHLVIACGRDASRLAALQQLSPNISVRLFDMTDRDACRQALTGCFADLIILCAGTCEYLDHGQVDAALVERVMATNFLGPVNCLAALQTQLEAGDRVVLVSSMAHWLPFPRAEAYGASKAALTWFANSLRLDWEPKGVAVTVVSPGFVDTPLTRKNDFAMPGRVSVDRAVAAIRHGLAKGKNHIAFPTGFSLALRLLASLPSGIQRLLLRRMVRSEGHHHHHH
MAMLAYQVSKSIEINKSQSEIIDYLKDFKNWPEWSPWIILEPSCELTYSDNQGHVGAGYQWNGQRIGTGAVVLESTQEHRLDMELHFFRPIKSHGKVTLIVTPSQDGCTVEWQMQSRVPWYLFFLKTMFKSMVEMDYDRGLKMLKSQLETGQILSQLSEIGTRHQDLIHYVGLQGSGTIPELGPIMKKQTQRLYELMQKESLPVSGELFCYYLSMDMKLGHFEFVTCLPVSEMVEVPNGFVFGTIPACETFVIEHKGDYQFLGNAWSLGMNLTRQNGIKVKSKPLGIERYLNNPNETPKAGLRTEVILFKKLEHHHHHH

Soluble on expression in E. coli, not soluble:
MDTTYGPPAPALSGLTLGIREYSLFQAVLLVIDRLRDAHPHLSEDDLYDQLEFQANPSLGFPSSDVSRVEFFHEHGQMRARMQFNLIGLVGSGSPLPAFYGEQALGDSEDGNPTRNFLDLFHHRLQRLMLPIWKKYRYRASFESGALDPFSAQLFALIGLGGEEIRRAQELNWKRLLPYLGLLSLRAHSAALIEAVLRYYFKHAELTIEQCIERRVEILDEQRNRLGSANSMLGEDLVLGDHVRDRSGKFRIHIRELDWQRFHEFLPIGFGYQPLCALVRFTLRDPLDYDIRLVLRQEEIRELRIGEQNACRLGWTSWLGREKADGVVTLGSKIH
RYISESGSDKVQFLISTNIGEPLRPLEKIVSGGELSRIMLSMKTVFVNKDKIPSVIFDEIDTGISGRIAERVADKMYAVSENHQVFCVTHLPQIACMSDTQFMV
MGSDKIHHHHHHMEATTNNMKDVTGAELLICTIGHSTHPLEEFINLLKKNEVTHLLDVRTVPRSRHNPQFNKETLPDALGAIGIKYTHLSGLGGLRHARKDSINEGWRNASFRGYADYMQTQEFVENVNRVIELAAHDRCALMCAEAVPWRCHRSLIADALVVRGVRVEDIIDNHGRKPHSLTPWAQAEGVRIFYPAQQGRLI
MAHHHHHHMFQNIQTIILDVNDGEMRAGYSGECSPRYNSNLILGLPVGHGATLKHTIFPLLPEIKRDNVELIYGMKYIYDDNNSSKYEINFDVMEKLLEDISGSKALDDNFQDHPILLTEPNKTDRKYREKFTEMMFETYNVYQLFLSRRSVLSCYGCARTSGLVLDVERNCTNLCGIQEGYIFQKHIEEVPIGGDLIDRIYLAYLENVKNIKIYPYFTIEKGQSAEKETDEIRILKCPLVTKPYYLWGSLHVASHLKENLGNECHPLGDKMKKNENKNESNTSYKLPDGSIIDQTTCESLKLIFPYIFFKKKYNQNSVTKLAGITTLQNMDFNSFYDSLKTLKLPVLYKHNYRINASSSVLERVPDNPADKNSNICNSDQIDTYFEIFDGLQDFIKKGILSFISANMTLDEVLNFLIVTGESTMFHNFIGILKSYLPFIDTIKEKSTQLIYSKGADRKCNCFIGASILSSLGTFPQFCMTKSEYEEYGVKNIVDKKCV
MPEVVFYPQNKSINVEEGTTILQAARSAGVIIESPCNGTGTCGKCKVRLDEKSLPNVLAKSRHYLSKEEEEQGYVLACETQITGDIKVELGENKQNGTLKILSRGHSFNIDLKPFIRKEYFVHEDVTKVFAGKEQLGIEAGDTTKENYGAVVDIGTTTLVASIVNLNNGDEIGTSSALNPQAVHAQDVLSRIKFSSDADGLKVMHSELTDKINSMIGKIALRAGISKEHIYEIVFSGNTCMLHLASNTCPESLGKYPYTPKISGAAYLDAAKYNIDISPFGIIYLPPIISAYVGADIVSGILASQLHEKDGVILFVDIGTNGEMVLASCGNLSATSTAAGPAFEGMNITCGMRAGEAAIEFFEIEEQGSINIKVIGETEAAGICGSGLLDMVGEFAAHGVIKKNGQFIDPESENVLHPKLAERLVRQDGKWIFKVTDKVFLSQKDIRQVQLAKGAVRAGIEFLLENKGVRASDVDKVLIAGSFGYHLREKSLINIGLLPKEFEGKVEFVGNTSLSGAKAFLLNQTYREKMKETVKSVEVLELANYKDFDRVFVRCLSFLEHHHHHH
MIAATPQAMDKQPSAKNQPCGIDKEVGTIANTVITLMPKYIDTNVIVLRHSCANRPPWRNAATNHANNPRNPSKNSTDITTPIDAAISGTACPFIRFSNSAIN
MGSDKIHHHHHHMKLGILEKYRRFLPVTDKTPMLSLNEGNTPLIPLVNMSRELGINIYVKYEGSNPTGSFKDRGMVVAVAKALEEGSKAIMCASTGNTSASAAAYAARAGIKAIVLIPEGKIALGKLAQAMIYGAVVLQVRGNFDKCLELVKEITSKYPITLVNSINPYRLEGQKTAAFEIVDELGDAPDYHFIPVGNAGNISAYWMGYKEYYQHGFSTKLPKMMGFQAEGAAPIVRGHPIENPETVATAIRIGNPANWEKAVRARDESGGDIDMVSDEEILRAQRLLAQKEGIFCEPASAASIAGLLKKHRQGIFRGGEIVVCTLTGNGLKDPNIVISQLEPPRIIEGRVEEILEVLDI
MQMMEQFYPKVSIVIPVYNGSDYMREAIDSALGQTYGNIEVIVVNDGSSDGGLTHEIALSYGGNIRYFAKENGGVASALNFAIRMMDGEYFSWLSHDDIYYPNKIETQIGYLAEHDRNAILYSDFELIDCLSKVIKPVNAGEIPPEQFLYNLITIGHLNGCTLLVPKRCFEETGFFDESLRSTQDYALWFTFAQKYRFEQIRKVLVKYRTHSNQGSYVIPTHSQEVNDLHIWFLEEASERGLLPIPDEGASRFFLEVAGIYKKRGIYRAADYSCSMALRHMRDEGGLALLRELPRVAYLKYYFRKKQFKSYLRELRRSTVRRSLLEHHHHHH
